We go through three molecules from US20080132679A1 (KANEKA, published 2008).

As usually defined, the Kd is the constant that tells how readily two partners part at equilibrium.

The target in the experiment is T1, Recombinant Human Insulin Receptor (28-956) (human, UniProt P06213 28-956).
T1 construct: range 28-956; Bought soluble receptor used as the analyte; also called soluble insulin receptor; SIR
Put plainly: SPR (BIAcore), peptide immobilized on CM5 by amine coupling, SIR as analyte 0.781-100 nM. On the procedure:
The ligand was immobilized on the sensor chip CM5 research grade (Biacore AB) by the amine coupling method. Thus, the peptide mentioned above was dissolved in 20 mM carbonate buffer (pH 8.5) (500 μg/ml), and 100 μl of the solution was passed through the flow cell at a flow rate of 5 μl/min. The amount of the peptide immobilized was 200 RU (resonance units).
Recombinant Human Insulin Receptor (28-956) (GT/TECHNE Corp.) was used as the analyte soluble insulin receptor (SIR). To 50 mg in a vial was added HBS-EP buffer (250 ml) for thorough dissolution ([…]), and the solution was 10-fold diluted to give a 100 nM solution. Eight concentration levels from 100 nM to 0.781 nM were prepared by subsequent repetitions of doubling dilution, and measurements were carried out using HBS-EP buffer (10 mM HEPES pH 7.4, 0.15M NaCl, 3 mM EDTA, 0.005% Surfactant P20) (Biacore AB) as a running solution; the rate of flow was 10 μl/min. A sensorgram was thus obtained.
Recombinant Human Insulin Receptor (28-956) (GT/TECHNE Corp.) was used as the analyte SIR. Eight concentration levels from 100 nM to 0.781 nM were prepared by subsequent repetitions of doubling dilution, which was started from diluting 100 nM solution, and measurements were carried out using HBS-EP buffer as a running solution; the rate of flow was 10 μl/min. A sensorgram was thus obtained.
For orientation: Surface plasmon resonance follows binding to a sensor surface in real time, without labels.

B1: peptide P14 (peptide)
peptide: CASDIVEGLYIVLAER
notes: Chemically synthesized by the Fmoc method; immobilized on a CM5 sensor chip by amine coupling (200 RU) for the Biacore assay; also called Peptide 14
For B1, the Kd was found to be 1.6 µM.

B2: peptide P15 (peptide)
peptide: CASDIVEGIYL
notes: Chemically synthesized; immobilized on a CM5 sensor chip by amine coupling (130 RU) for the Biacore assay; also called Peptide 15
With B2, the Kd was determined as 24 µM.

B3: peptide P21 (peptide)
peptide: CQHILGSDIVEGIYL
notes: Chemically synthesized; immobilized on a CM5 sensor chip by amine coupling (270 RU) for the Biacore assay; also called Peptide 21
Take B3: the Kd was 12 µM.
